Results reported in patent publication US20250197490A1 (HBM ALPHA THERAPEUTICS, published 2025).
Each block holds one binder with its values, some of them ahead of it.

Assays:
biotinylated CRH [1] = biological target: T1, biotinylated CRH (human and mouse, UniProt P01143 145-185 (rat entry), not fully specified; biotin; which end is not stated for the result (NT-biotin and CT-biotin forms were used)); assay: ELISA, CRH (NT biotin)
T1 construct: also called biotin-CRH; CRH (NT biotin)
T1 peptide: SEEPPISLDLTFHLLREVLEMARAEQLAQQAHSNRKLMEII
Experimental: (§1) Streptavidin (Thermo, Cat: 21125) was diluted in PBS to a concentration of 2 μg/ml. 100 μl of diluted streptavidin was added per well to ELISA microplates, and the plates were incubated overnight at 4° C. […] Subsequently, plates were washed and incubated with HRP-conjugated goat anti-human IgG (H+L) antibody (Jackson, Cat: 109-035-088) at 37° C. for 1 hour. 100 μL of 3,3′,5,5′-tetramethylbenzidine (TMB) substrate (Biopanda, Cat: TMB-S-003) was added, and the plates were incubated at room temperature for 15 minutes. 100 μL of ELISA stopping solution (Solarbio, Cat #: C1058) was added to terminate the reaction, and the optical density at 450 nm (OD450 nm) was determined by an ELISA plate reader (Molecular Devices, Spectra max 384 plus).

biotinylated CRH [2] = biological target: T1, biotinylated CRH; assay: ELISA, CRH (CT biotin)
Experimental: as §1

[3] = biological target: T2, human UCN1 peptide, biotinylated (human, UniProt P55089 83-122, biotin at N- or C-terminus); assay: ELISA, hUCN1 (NT biotin)
T2 construct: also called hUCN1 (NT Biotin); hUCN1 (CT Biotin)
T2 peptide (looked up): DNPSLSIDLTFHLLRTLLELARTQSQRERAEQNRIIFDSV
Experimental: as §1

[4] = biological target: T2, human UCN1 peptide, biotinylated; assay: ELISA, hUCN1 (CT biotin)
Experimental: as §1

[5] = biological target: T3, human UCN2 peptide, biotinylated (human, UniProt Q96RP3 72-109, limits assumed, biotin at N- or C-terminus); assay: ELISA, hUCN2 (NT biotin) and (CT biotin)
T3 construct: also called hUCN2 (NT Biotin); hUCN2 (CT Biotin)
T3 peptide (looked up): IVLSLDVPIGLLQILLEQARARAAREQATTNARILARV
Experimental: (§2) Streptavidin (Thermo, Cat: 21125) was diluted in PBS with a concentration of 2 μg/mL. 100 μL of diluted streptavidin was added per well to ELISA microplates, and the plates were incubated overnight at 4° C. Plates were blocked with ELISA blocking solution (containing 2% w/v BSA, 0.05% (v/v) Tween-20, pH 7.4 PBS buffer) at 37° C. for 1 hour, and then incubated with either 1 μg/mL hUCN1 (NT Biotin), hUCN1 (CT Biotin), hUCN2 (NT Biotin), hUCN2 (CT Biotin), hUCN3 (NT Biotin), or hUCN3 (CT Biotin) for 1 hour at 37° C. […] Plates were subsequently washed and incubated with HRP-conjugated goat anti-human IgG (H+L) antibody (Jackson, Cat: 109-035-088) at 37° C. for 1 hour. 100 μl of TMB Substrate (Biopanda, Cat: TMB-S-003) was added, and the plates were incubated at room temperature for 15 minutes. 100 μL of ELISA stopping solution (Solarbio, Cat #: C1058) was then added to terminate the reaction, and the OD450 nm was determined by an ELISA plate reader (Molecular Devices, Spectra max 384 plus).

[6] = biological target: T4, human UCN3 peptide, biotinylated (human, UniProt Q969E3 120-157, biotin at N- or C-terminus); assay: ELISA, hUCN3 (NT biotin) and (CT biotin)
T4 construct: also called hUCN3 (NT Biotin); hUCN3 (CT Biotin)
T4 peptide (looked up): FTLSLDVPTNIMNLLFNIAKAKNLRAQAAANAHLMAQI
Experimental: as §2

biotinylated CRH [7] = biological target: T1, biotinylated CRH; assay: Octet in-tandem competition on captured CRH; row = 1st mAb; competitor (2nd mAb) PR006669
Experimental: (§3) SA sensors (Fortebio, Cat #18-5019) were hydrated in running buffer for 10 mins.

biotinylated CRH [8] = biological target: T1, biotinylated CRH; assay: ELISA, CRH (CT biotin)
biotinylated CRH [9] = biological target: T1, biotinylated CRH; assay: ELISA, CRH (NT biotin)
Experimental: as §1
These potential PTMs were mutated individually either in HCDR2 alone, in LCDR1 alone, or in various combinations of mutations, as detailed in Table 3. […] Most ΔPTM variants retained functional activities.

[10] = biological target: T5, corticotropin-releasing hormone (CRH) peptide (human and mouse, UniProt P01143 145-185 (rat entry), not fully specified); assay: cell-based or functional assay
T5 peptide: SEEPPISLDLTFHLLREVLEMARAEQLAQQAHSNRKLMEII

biotinylated CRH [11] = biological target: T1, biotinylated CRH; assay: CRH ELISA, compared with PR006669
Experimental: as §1

[12] = biological target: T5, corticotropin-releasing hormone (CRH) …; assay: cell-based or functional assay
[13] = biological target: T6, N-Terminal CRH peptide (N-terminal region plus central region, CT biotin) (human and mouse, C-terminal K-Biotin); assay: ELISA, N-Ter-CRH (CT-biotin) on streptavidin
T6 construct: also called N-Ter-CRH
T6 peptide: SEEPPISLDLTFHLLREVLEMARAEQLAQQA
Experimental: as §1

[14] = biological target: T7, CRH (Central Region, NT Biotin) (N-terminal Biotin-K; C-terminal NH2); assay: ELISA, CRH central region peptide (NT biotin)
T7 construct: also called Central CRH
T7 peptide: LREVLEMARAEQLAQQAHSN
Experimental: as §1

[15] = biological target: T8, CRH (Central Region, CT Biotin) (C-terminal K-Biotin); assay: ELISA, CRH central region peptide (CT biotin)
T8 construct: also called Central CRH
T8 peptide: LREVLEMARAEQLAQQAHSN
Experimental: as §1

[16] = biological target: T9, CRH (C-Terminal Region, NT Biotin) (N-terminal Biotin-K; C-terminal NH2); assay: ELISA, CRH C-terminal region peptide (NT biotin)
T9 construct: central region plus C-terminal region of CRH; also called C-Terminal CRH; C-Ter-CRH
T9 peptide: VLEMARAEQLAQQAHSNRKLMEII
Experimental: as §1

[17] = biological target: T2, human UCN1 peptide, biotinylated; assay: ELISA, hUCN1 (NT biotin) and (CT biotin), mAb at 100 and 10 nM
Experimental: as §2

biotinylated CRH [18] = biological target: T1, biotinylated CRH; assay: Octet in-tandem competition on captured CRH; row = 1st mAb; competitor (2nd mAb) PR302341-34
Experimental: as §3

biotinylated CRH [19] = biological target: T1, biotinylated CRH; assay: ELISA, CRH (NT biotin)
biotinylated CRH [20] = biological target: T1, biotinylated CRH; assay: ELISA, CRH (NT biotin)
biotinylated CRH [21] = biological target: T1, biotinylated CRH; assay: ELISA, CRH (CT biotin)

B4: PR006745 (antibody, human IgG1, kappa, V domains shown)
VH: EVQLVESGGGLVQPGGSLRLSCAASGFTFSDNWMSWVRQAPGKGLEWVANIKQDASENYYVDSVKGRFTISRDNAKNSLYLQMNSLRAEDTAVYYCSRGLALWGWGQGTLVTVSS
VL: DIVMTHSPLSLPVTPGDPASISCRSSQSLLHSTGYNYLDWYLQKPGQSPQLLIYLGSNRASGVPDRFSGSGSGTDFTLKFIRVEAEDVGVYYCMQALQTPYTFGQGTKLEIKR
- binding result (biotinylated CRH [11]): binds

B6: PR301806 (antibody, human IgG1, kappa, V domains shown)
VH: QVQLQQPGAELVKPGTSVKMSCKASGYTFTSYWMHWVKQRPGQGLEWIGDIYPGSDSTNYNEKFKSKASLTVDTSSSTAYMQLSSLTSEDSAVYYCARSITTTTFWYFDVWGAGTTVTVSS
VL: DVLMTQTPLSLPVSLGDQASISCRSSQSFVYSNGNTYLQWYLQKPGQSPKLLIYKVSNRFSGVPDRFSGSGSGTDFTLKISRVEAEDLGVYYCFQGSHVPPTFGAGTKLELKR
- binding result (biotinylated CRH [19]): binds

B7: PR301788 (antibody, human IgG1, kappa, V domains shown)
VH: EMKLEESGGGLVQPGGSMKLSCVASGFTFSNYWMNWVRQSPEKGLEWVAEIRLKSNNYATHYAESVKGRFTISRDDSKSSVYLQMNNLRAEDTGIYYCTIGTLVYWGQGTLVTVSA
VL: DIVLTQSPASLAVSLGQRATISCRASQSVSTSTYNYMHWFQQKPGQPPKLLIKFASNLESGVPARFSGSGSGTDFTLNIHPVEEEDTATFYCQHSWEIPYTFGGGTKLEIKR
- binding result (biotinylated CRH [19]): binds

B8: PR301306 (antibody, human IgG1, kappa, V domains shown)
VH: EVKLEESGGGLVQPGGSMKLSCVASGFTFSNYWMNWVRQSPEKGLEWVAEIRLKSNNYATLYAESVKGRFTISRDDSKSSVYLQMNNLRAEDTGIYYCTRGTLVYWGQGTLVTVSA
VL: DIVLTQSPASLAVSLGQRATISCRASQSVSTSDYNYMHWYQQKPGQPPKLLIKYASNLESGVPARFSGSGSGTDFTLNIHPVEEEDTATYYCQHSWEIPYTFGGGTKLEIKR
- EC50 (read off the curve) (biotinylated CRH [20]): ~0.1 nM
- EC50 (read off the curve) (biotinylated CRH [21]): ~0.04 nM

Results, then the binder that gave them:

- EC50 (read off the curve) (biotinylated CRH [1]): ~0.03 nM
- EC50 (read off the curve) (biotinylated CRH [2]): ~0.03 nM
- EC50 (read off the curve) [3]: ~0.02 nM
- EC50 (read off the curve) [4]: ~0.02 nM
- binding result [5]: no binding (tested: 100 nM)
- binding result [6]: no binding (tested: 100 nM)
- % Inhibition (biotinylated CRH [7]): 90%
B1: PR303394 (antibody, human IgG1, kappa, V domains shown)
VH: EVQLQQSGPELVKPGVSMKISCKASGYSFTDSTMNWVKQSHGKNLEWIGLIHPDNGGTIYNQKFKGKATLTVHKSSSTAYMELLSLTSEDSAVYYCANGFAYWGQGTLVTVSA
VL: DVVMTQTPLSLPVSLGDQASISCRSSQSLLHSNGNTYLHWYLQKPGQSPELLIYKVSNRFSGVPDRFSGSGSGTDFTLKISRVEAEDLGVYFCSQSTHVPLTFGAGTKLELKR
notes: also called analog of CTRND05

- EC50 (read off the curve) (biotinylated CRH [8]): ~0.03 nM
B2: PR301612 (antibody, human IgG1, kappa, V domains shown)
VH: EVKLEESGGGLVQPGGSIKLSCVASGFTFSGAWMAWVRQSPEKGLEWVAEIKNKANNHATFYAESVKGRFIISRDDSKSSVYLQMNSLRAEDTGTYYCTLPDVWGTGTTVTVSS
VL: QIVLTQSPAIMSASPGERVTISCSASSSVSNMYWYLQKPGSSPKPWIYRTSNLASGVPARFSGSGSGTSYSLTISSMEAEDVATYYCQQYHSFPRTFGGGTKLEIKR

- EC50 (read off the curve) (biotinylated CRH [9]): ~0.03 nM
- IC50 (read off the curve), CRH-induced mCRHR1 luciferase reporter [10]: ~4 nM
B3: PR005656 (antibody, human IgG1, kappa, V domains shown)
VH: EVQLVESGGVLVQPGGSLRLSCAASGFTFSSYWMTWVRQAPGKGLEWVANIKQEGSEKYYVDSVKGRFTISRDNAKNSLFLQMNSLRAEDTAVYYCARTLIFDYWGQGTLVTVSS
VL: DIVMTQSPLSLPVTPGEPASISCRSSQSLLHSTGYNSLEWYLQKPGQSPQLLIYLGSNRASGVPDRFSGSGSGTDFTLKISRVEAEDVGIYYCMQTLQTPITFGQGTRLEIKR

- IC50 in the hCRHR1 reporter assay [12]: ~10 nM
- EC50 (read off the curve) (biotinylated CRH [9]): ~0.03 nM
- EC50 (read off the curve) (biotinylated CRH [1]): ~0.03 nM
- EC50 (read off the curve) (biotinylated CRH [2]): ~0.05 nM
- EC50 [13]: 0.076 nM
- binding result [5]: no binding (tested: 100 nM)
- binding result [6]: no binding (tested: 100 nM)
- binding result [14]: no binding (tested: 100 nM)
- binding result [15]: no binding (tested: 100 nM)
- binding result [16]: no binding (tested: 100 nM)
- binding result [17]: binds
- % Inhibition (biotinylated CRH [18]): 90%
B5: PR005660 (antibody, human IgG1, kappa, V domains shown)
VH: EVQLVESGGVLVQPGGSLRLSCAASGFTFSSYWMTWVRQAPGKGLEWVANIKQEGSEKYYVDSVKGRFTISRDNAKNSLFLQMNSLRAEDTAVYYCARTLIFDYWGQGTLVTVSS
VL: DIVMTQSPLSLPVTPGEPASISCRSSQSLLHSTGYQSLEWYLQKPGQSPQLLIYLGSNRASGVPDRFSGSGSGTDFTLKISRVEAEDVGIYYCMQTLQTPITFGQGTRLEIKR
